Reference: patent US20240392023A1 (ABCLON, published 2024)

T1: CD30-His (Sino Biological, 10777-H08H) (UniProt P28908 19-379)
T1 construct: Bought protein; also called CD30-His protein; CD30 protein; not shown: His tag
T1 sequence (looked up): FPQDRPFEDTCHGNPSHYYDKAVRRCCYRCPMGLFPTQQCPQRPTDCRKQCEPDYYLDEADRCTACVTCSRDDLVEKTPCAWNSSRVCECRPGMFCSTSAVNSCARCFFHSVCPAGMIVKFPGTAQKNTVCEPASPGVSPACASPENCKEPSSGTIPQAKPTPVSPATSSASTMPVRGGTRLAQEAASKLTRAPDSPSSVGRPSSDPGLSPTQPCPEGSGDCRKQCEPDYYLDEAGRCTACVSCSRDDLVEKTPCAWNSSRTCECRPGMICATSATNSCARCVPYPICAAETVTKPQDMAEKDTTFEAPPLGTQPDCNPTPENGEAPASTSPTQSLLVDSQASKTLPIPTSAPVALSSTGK

T2: CD30 expressed on cells (CD30-293T, SUDHL1, HDLM-2) (UniProt P28908 19-595)
T2 sequence (looked up): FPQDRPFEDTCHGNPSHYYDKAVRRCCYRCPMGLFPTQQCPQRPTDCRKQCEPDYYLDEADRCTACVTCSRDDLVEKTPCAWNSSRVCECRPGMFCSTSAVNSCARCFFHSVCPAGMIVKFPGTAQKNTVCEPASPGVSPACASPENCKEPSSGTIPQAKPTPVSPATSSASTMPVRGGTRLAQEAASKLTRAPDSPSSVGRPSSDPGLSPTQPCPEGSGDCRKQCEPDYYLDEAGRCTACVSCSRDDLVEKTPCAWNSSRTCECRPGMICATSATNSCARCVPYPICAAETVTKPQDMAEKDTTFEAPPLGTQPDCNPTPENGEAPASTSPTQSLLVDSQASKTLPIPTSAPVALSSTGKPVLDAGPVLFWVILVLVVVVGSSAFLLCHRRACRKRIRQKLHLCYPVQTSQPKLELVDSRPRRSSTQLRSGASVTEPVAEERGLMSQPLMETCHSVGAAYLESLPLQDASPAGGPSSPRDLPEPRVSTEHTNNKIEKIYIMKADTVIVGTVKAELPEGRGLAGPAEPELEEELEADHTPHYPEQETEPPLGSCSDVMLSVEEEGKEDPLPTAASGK


What was measured:
[1] = target: T1, CD30-His (Sino Biological, 10777-H08H); test: ELISA, scFv-Fc titrated on plate coated with 1 µg/mL CD30-His
Description: For ELISA, the eleven purified anti-CD30 scFv-Fc forms and the positive control HRS scFV-Fc were 1/3 diluted for 10 points starting from 10 μg/mL in a plate coated with 1 μg/mL CD30-His protein. After treatment with a secondary antibody (anti-hIgG-Fc-HRP (Invitrogen, H10007)), a color was developed with TMB. OD₄₅₀ values were read using an ELISA reader, and EC₅₀ values were measured by means of Graph prism (FIG. 1, Table 3).

[2] = target: T2, CD30 expressed on cells (CD30-293T, …); test: cell-based or functional assay
[3] = target: T2, CD30 expressed on cells (CD30-293T, …); test: cell-based or functional assay; remark: listed apart in the source

Binder	EC50 [1] [µg/mL]	Cytotoxicity (%) against CD30-expressing cell (CD30-293T), CAR-T/Target 0.11 [2] [%]	Cytotoxicity (%) against CD30-expressing cell (CD30-293T), CAR-T/Target 0.33 [2] [%]	Cytotoxicity (%) against CD30-expressing cell (CD30-293T), CAR-T/Target 1 [2] [%]	Cytotoxicity (%) against CD30-expressing cell (SUDHL1), CAR-T/Target 0.11 [3] [%]	Cytotoxicity (%) against CD30-expressing cell (SUDHL1), CAR-T/Target 0.33 [3] [%]	Cytotoxicity (%) against CD30-expressing cell (SUDHL1), CAR-T/Target 1 [3] [%]
T1-2 anti-CD30 scFv-Fc (Fc fusion, Cloned in an scFv-Fc-conjugated form (Zb-Fc); detected with anti-human IgG Fc; also called Zb-Fc form; not shown: Fc of the scFv-Fc (Zb-Fc) form and any junction to it) scFv: EVQLLESGGGLVQPGGSLRLSCAASGFTFSGYGMSWVRQAPGKGLEWVSYISGYSYYTYYADSVKGRFTFSRDNSKNTLYLQMNSLRAEDTAVYYCARYDGNGFDYWGQGTLVTVSSGGGGSGGGGSGGGGSQSVLTQPPSASGTPGQRVTISCSGSSSNIGSNYVYWYQQLPGTAPKLLIYRNNQRPSGVPDRFSGSKSGTSASLAISGLRSEDEADYYCAADSSDDSYVFGGGTKLTVLG	0.06	–	–	–	–	–	–
scFv CAR of anti CD30 antibody (T1-7), on CAR-T cells (other) EVQLLESGGGLVQPGGSLRLSCAASGFTFSGYGMSWVRQAPGKGLEWVSYISSGSYYTYYADSVKGRFTISRDNSKNTLYLQMNSLRAEDTAVYYCARYRGDNDYYGYFDYWGQGTLVTVSSGGGGSGGGGSGGGGSQSVLTQPPSASGTPGQRVTISCSCSSSNIGNNAVSWYQQLPGTAPKLLIYRNNQRPSGVPDRFSGSKSGTSASLAISGLRSEDEADYYCAADYGSDYVFGGGTKLTVLGGQAGQTTTPAPRPPTPAPTIASQPLSLRPEACRPAAGGAVHTRGLDFACDIYIWAPLAGTCGVLLLSLVITLYCKRGRKKLLYIFKQPFMRPVQTTQEEDGCSCRFPEEEEGGCELRVKFSRSADAPAYQQGQNQLYNELNLGRREEYDVLDKRRGRDPEMGGKPRRKNPQEGLYNELQKDKMAEAYSEIGMKGERRRGKGHDGLYQGLSTATKDTYDALHMQALPPR	–	-5	-2	-2	8	18	34
T1-8 anti-CD30 scFv-Fc (Fc fusion, scFv-Fc-conjugated form (Zb-Fc); also called Zb-Fc form; not shown: Human Fc of the scFv-Fc (Zb-Fc) form and its junction to the scFv) scFv: EVQLLESGGGLVQPGGSLRLSCAASGFTFSSYMSWVRQAPGKGLEWVSSIGSGYYSTYYADSVKGRFTISRDNSKNTLYLQMNSLRAEDTAVYYCARDYYGGFDYWGQGTLVTVSSGGGGSGGGGSGGGGSQSVLTQPPSASGTPGQRVTISCSGSSSNIGSNYVYWYQQLPGTAPKLLIYRNNQRPSGVPDRFSGSKSGTSASLAISGLRSEDEADYYCAAYDSYSYVFGGGTKLTVLG	0.051	–	–	–	–	–	–
T1-9 anti-CD30 scFv-Fc (Fc fusion, scFv-Fc-conjugated form (Zb-Fc); also called Zb-Fc form; not shown: Fc of the scFv-Fc (Zb-Fc) form and its junction) scFv: EVQLLESGGGLVQPGGSLRLSCAASGFTFSYYGMSWVRQAPGKGLEWVSGIGSYSSYTYYADSVKGRFTISRDNSKNTLYLQMNSLRAEDTAVYYCARYASSPDAYFDYWGQGTLVTVSSGGGGSGGGGSGGGGSQSVLTQPPSASGTPGQRVTISCSGSSSNIGSNYVYWYQQLPGTAPKLLIYRNNQRPSGVPGRFSGSKSGTSASLAISGLRSEDEADYYCAAYYNYNYVFGGGTKLTVLG	0.026	–	–	–	–	–	–
T1-7 anti-CD30 scFv-Fc (Fc fusion, scFv-Fc-conjugated form (Zb-Fc); also called Zb-Fc form; not shown: Fc of the scFv-Fc (Zb-Fc) form and any junction to it) scFv: EVQLLESGGGLVQPGGSLRLSCAASGFTFSGYGMSWVRQAPGKGLEWVSYISSGSYYTYYADSVKGRFTISRDNSKNTLYLQMNSLRAEDTAVYYCARYRGDNDYYGYFDYWGQGTLVTVSSGGGGSGGGGSGGGGSQSVLTQPPSASGTPGQRVTISCSCSSSNIGNNAVSWYQQLPGTAPKLLIYRNNQRPSGVPDRFSGSKSGTSASLAISGLRSEDEADYYCAADYGSDYVFGGGTKLTVLG	0.048	–	–	–	–	–	–
scFv CAR of anti CD30 antibody (T1-8), on CAR-T cells (other) EVQLLESGGGLVQPGGSLRLSCAASGFTFSSYMSWVRQAPGKGLEWVSSIGSGYYSTYYADSVKGRFTISRDNSKNTLYLQMNSLRAEDTAVYYCARDYYGGFDYWGQGTLVTVSSGGGGSGGGGSGGGGSQSVLTQPPSASGTPGQRVTISCSGSSSNIGSNYVYWYQQLPGTAPKLLIYRNNQRPSGVPDRFSGSKSGTSASLAISGLRSEDEADYYCAAYDSYSYVFGGGTKLTVLGGQAGQTTTPAPRPPTPAPTIASQPLSLRPEACRPAAGGAVHTRGLDFACDIYIWAPLAGTCGVLLLSLVITLYCKRGRKKLLYIFKQPFMRPVQTTQEEDGCSCRFPEEEEGGCELRVKFSRSADAPAYQQGQNQLYNELNLGRREEYDVLDKRRGRDPEMGGKPRRKNPQEGLYNELQKDKMAEAYSEIGMKGERRRGKGHDGLYQGLSTATKDTYDALHMQALPPR	–	-8	0	35	43	60	78
T1-23 anti-CD30 scFv-Fc (Fc fusion, scFv-Fc-conjugated form (Zb-Fc); also called Zb-Fc form; not shown: Fc of the scFv-Fc (Zb-Fc) form and its junction) scFv: EVQLLESGGGLVQPGGSLRLSCAASGFTFSSYSMSWVRQAPGKGLEWVSGIGYPYYTYYADSVKGRFTISRDNSKNTLYLQMNSLRAEDTAVYYCARYYYDYGFDYWGQGTLVTVSSGGGGSGGGGSGGGGSQSVLTQPPSASGTPGQRVTISCSGSSSNIGSNYVYWYQQLPGTAPKLLIYRNNQRPSGVPDRFSGSKSGTSASLAISGLRSEDEADYYCAAYRSYDYVFGGGTKLTVLG	0.023	–	–	–	–	–	–
T1-10 anti-CD30 scFv-Fc (Fc fusion, scFv-Fc-conjugated form (Zb-Fc); also called Zb-Fc form; not shown: Fc of the scFv-Fc (Zb-Fc) form and its junction) scFv: EVQLLESGGGLVQPGGSLRLSCAASGFTFSSYGMSWVRQAPGKGLEWVSYISGGSYYTYYADSVKGRFTISRDNSKNTLYLQMNSLRAEDTAVYYCARYGYGYYDGSFDYWGQGTLVTVSSGGGGSGGGGSGGGGSQSVLTQPPSASGTPGQRVTISCSGSSSNIGSNYVYWYQQLPGTAPKLLIYRNNQRPSGVPDRFSGSKSGTSASLAISGLRSEDEADYYCAADGPYNYVFGGGTKLTVLG	0.031	–	–	–	–	–	–
scFv CAR of anti CD30 antibody (T1-36), on CAR-T cells (other) EVQLLESGGGLVQPGGSLRLSCAASGFTFSYYYMSWVRQAPGKGLEWVSYIGGGGSGTYYADSVKGRFTISRDNSKNTLYLQMNSLRAEDTAVYYCARGPYYGYFDYWGQGTLVTVSSGGGGSGGGGSGGGGSQSVLTQPPSASGTPGQRVTISCSGSSSNIGSNYVYWYQQLPGTAPKLLIYRNNQRPSGVPDRFSGSKSGTSASLAISGLRSEDEADYYCAAYPSYDSYVFGGGTKLTVLGGQAGQTTTPAPRPPTPAPTIASQPLSLRPEACRPAAGGAVHTRGLDFACDIYIWAPLAGTCGVLLLSLVITLYCKRGRKKLLYIFKQPFMRPVQTTQEEDGCSCRFPEEEEGGCELRVKFSRSADAPAYQQGQNQLYNELNLGRREEYDVLDKRRGRDPEMGGKPRRKNPQEGLYNELQKDKMAEAYSEIGMKGERRRGKGHDGLYQGLSTATKDTYDALHMQALPPR	–	21	78	98	48	89	95
scFv CAR of anti CD30 antibody (T1-117), on CAR-T cells (other) EVQLLESGGGLVQPGGSLRLSCAASGFTFSYYGMSWVRQAPGKGLEWVSYISGYSSYTYYADSVKGRFTISRDNSKNTLYLQMNSLRAEDTAVYYCARYNDSGSFDYWGQGTLVTVSSGGGGSGGGGSGGGGSQSVLTQPPSASGTPGQRVTISCSGSSSNIGSNYVYWYQQLPGTAPKLLIYRNNQRPSGVPDRFSGSKSGTSASLAISGLRSEDEADYYCAADAGNRYVFGGGTKLTVLGGQAGQTTTPAPRPPTPAPTIASQPLSLRPEACRPAAGGAVHTRGLDFACDIYIWAPLAGTCGVLLLSLVITLYCKRGRKKLLYIFKQPFMRPVQTTQEEDGCSCRFPEEEEGGCELRVKFSRSADAPAYQQGQNQLYNELNLGRREEYDVLDKRRGRDPEMGGKPRRKNPQEGLYNELQKDKMAEAYSEIGMKGERRRGKGHDGLYQGLSTATKDTYDALHMQALPPR	–	-3	-1	-14	-2	11	21
